Publication PMC8027542

Assays:
TLR2 = TLR2 (UniProt O60603); test: SPR; TLR2 or CD14 (ligands) immobilised on a CM5 chip; different SIC concentrations as analyte; 1:1 Langmuir fit
CD14 = CD14 (UniProt P08571); test: as above
Sequence of UniProt P08571 (P08571 20-345): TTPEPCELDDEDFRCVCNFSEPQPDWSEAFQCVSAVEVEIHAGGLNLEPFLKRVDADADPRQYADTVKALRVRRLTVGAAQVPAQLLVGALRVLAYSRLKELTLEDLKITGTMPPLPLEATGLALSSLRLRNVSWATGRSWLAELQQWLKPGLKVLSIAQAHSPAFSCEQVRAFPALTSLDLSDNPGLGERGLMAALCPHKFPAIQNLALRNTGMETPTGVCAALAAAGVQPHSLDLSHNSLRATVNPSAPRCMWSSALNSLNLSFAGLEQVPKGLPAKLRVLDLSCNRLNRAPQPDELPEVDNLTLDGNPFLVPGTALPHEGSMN

Sequence of UniProt O60603 (O60603 21-784): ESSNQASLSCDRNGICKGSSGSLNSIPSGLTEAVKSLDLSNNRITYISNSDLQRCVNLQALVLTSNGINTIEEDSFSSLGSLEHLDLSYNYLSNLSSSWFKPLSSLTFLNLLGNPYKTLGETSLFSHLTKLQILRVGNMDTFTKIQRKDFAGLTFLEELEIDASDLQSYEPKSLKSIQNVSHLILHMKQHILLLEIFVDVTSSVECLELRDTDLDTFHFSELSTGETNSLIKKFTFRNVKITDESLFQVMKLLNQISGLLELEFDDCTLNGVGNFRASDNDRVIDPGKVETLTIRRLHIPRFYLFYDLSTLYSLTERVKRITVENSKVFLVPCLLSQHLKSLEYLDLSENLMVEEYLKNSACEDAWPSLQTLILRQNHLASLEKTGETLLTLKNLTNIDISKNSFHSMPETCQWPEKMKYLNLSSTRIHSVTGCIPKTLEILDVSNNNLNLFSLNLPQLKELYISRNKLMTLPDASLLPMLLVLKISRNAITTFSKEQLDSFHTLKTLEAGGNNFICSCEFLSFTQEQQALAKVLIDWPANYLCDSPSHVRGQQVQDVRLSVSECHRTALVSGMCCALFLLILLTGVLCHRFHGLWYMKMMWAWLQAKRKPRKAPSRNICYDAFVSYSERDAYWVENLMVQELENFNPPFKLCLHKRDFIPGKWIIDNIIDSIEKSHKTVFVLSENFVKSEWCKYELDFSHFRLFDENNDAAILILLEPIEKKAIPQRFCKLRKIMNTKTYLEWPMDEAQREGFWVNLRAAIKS

Streptococcal inhibitor of complement (SIC) from S. pyogenes M1 strain AP1 (natural protein)
Kd (TLR2): 12.9 µM | Kd (CD14): 2.52 µM
